According to PMC3936717 (Nucleic Acids Research, 2013):

Target: the molecule itself
Experiment: crystal structure

B1: P2 Cox protein of bacteriophage P2 (natural protein, UniProt P07695 1-91, looked up)
chain: MSKQVTLMTDAIPYQEFAKLIGKSTGAVRRMIDKGKLPVIDMTDPQSASGRAGEYWVYLPAWNNGLKLAYESRPKEIRDGWLMWLGLGEPR
binding result: binds
